The record followed here is article PMC6262447.

The target in this assay is NADPH-dependent thioredoxin reductase from Methanosarcina mazei strain Gö1 (Methanosarcina mazei strain Gö1). The assay is described as follows: SEC; Sephacryl S-300 gel filtration in 10 mM Tris-HCl pH 7.6, 100 mM NaCl, 2 mM 2-mercaptoethanol; column calibrated with the Bio-Rad Gel Filtration Standard; monomer to dimer. A general note: Size exclusion chromatography separates by hydrodynamic size, large species first.

As usually defined, the stoichiometry N is the number of molecules, sites or subunits per partner or assembly.

“NADPH-dependent thioredoxin reductase from Methanosarcina mazei strain Gö1 (enzyme)” yielded a stoichiometry N of 2.
